Molecular target: T1, OgeuIscB wild-type (human gut metagenome)
T1 chain: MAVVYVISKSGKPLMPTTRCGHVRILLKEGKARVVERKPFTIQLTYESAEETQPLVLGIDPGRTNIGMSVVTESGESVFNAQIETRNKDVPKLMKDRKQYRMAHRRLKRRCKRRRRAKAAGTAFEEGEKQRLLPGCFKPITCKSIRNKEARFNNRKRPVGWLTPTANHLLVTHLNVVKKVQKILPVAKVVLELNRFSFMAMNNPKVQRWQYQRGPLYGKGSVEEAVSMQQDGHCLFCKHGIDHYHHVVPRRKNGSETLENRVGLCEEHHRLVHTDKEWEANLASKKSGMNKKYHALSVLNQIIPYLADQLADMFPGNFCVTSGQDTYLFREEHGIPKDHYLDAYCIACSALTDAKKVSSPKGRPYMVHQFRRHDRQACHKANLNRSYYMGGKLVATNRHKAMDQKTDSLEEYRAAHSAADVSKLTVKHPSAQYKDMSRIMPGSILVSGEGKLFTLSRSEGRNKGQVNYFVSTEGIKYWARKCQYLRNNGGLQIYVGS
Experiment: structure; cryo-EM of IscB-ωRNA/target DNA at 2.78 A; TAM 5'-CTAGAA-3' (ideal NWRRNA)
Conditions: label: 5' 6-FAM on non-target strand; partially mismatched bubble in protospacer
Experimental: IscB was incubated for 15 minutes at 37° C. with the target DNA in cleavage buffer. DNA was supplied at a 3 fold molar excess to IscB (0.5 mg/mL final concentration). 3.5 μL of were applied to a Quantifoil holey carbon grid (1.2/1.3, 200 mesh) which had been glow-discharged with 20 mA at 0.39 mBar for 30 seconds (PELCO easiGlow). Grids were blotted with Vitrobot blotting paper (Electron Microscopy Sciences) for 6.5 s at 4° C., 100% humidity, and plunge-frozen in liquid ethane using a Mark IV FEI/Thermo Fisher Vitrobot. Data were collected on a Krios G3i Cryo Transmission Electron Microscope (Thermo Scientific) with a Ceta 16M CMOS camera 300 kV, Gatan K3 direct electron detector. The total exposure time of each movie stack led to a total accumulated dose of 50 electrons per Å2 which fractionated into 50 frames. Dose-fractionated super-resolution movie stacks collected from the Gatan K3 direct electron detector were binned to a pixel size of 1.1 Å. The defocus value was set between −1.0 μm to −2.5 μm.

B1: OgeuIscB ωRNA with 16-nt guide ; cryo-EM target DNA (ssRNA ; dsDNA)
RNA: AAAAGAGUGAACGAGAGGCUCUUCCAACUUUAUGGUUGCGACCGUAGGUUGAAAGAGCACAGGCUGAGACAUUCGUAAGGCCGAAAGACCGGACGCACCCUGGGAUUUCCCCAGUCCCCGGAACUGCAUAGCGGAUGCCAGUUGAUGGAGCAAUCUAUCAGAUAAGCCAGGGGGAACAAUCACCUCUCUGUAUCAGAGAGAGUUUUACAAAAGGAGGAACGG
DNA 1: CGCCCCACGAGGGTACGGCAAAAGAGTTTTTTTTACTAGAAGTCGAGGTCAGCCCGTGGC
DNA 2: GCCACGGGCTGACCTCGACTTCTAGTCTCGTTCACTCTTTTGCCGTACCCTCGTGGGGCG
modifications: phosphorothioate at several positions of both strands (after G25-T31 region as marked by *)
  binding result: binds
